One assay has as its target T1, human 5T4 on cells (human, UniProt Q13641 32-420).
T1 construct: Human 5T4 on transfected cells (CHO-K1, CT26, B16) or endogenous on human tumour lines; the cell line is named under assay; also called trophoblast glycoprotein; TPBG
T1 sequence: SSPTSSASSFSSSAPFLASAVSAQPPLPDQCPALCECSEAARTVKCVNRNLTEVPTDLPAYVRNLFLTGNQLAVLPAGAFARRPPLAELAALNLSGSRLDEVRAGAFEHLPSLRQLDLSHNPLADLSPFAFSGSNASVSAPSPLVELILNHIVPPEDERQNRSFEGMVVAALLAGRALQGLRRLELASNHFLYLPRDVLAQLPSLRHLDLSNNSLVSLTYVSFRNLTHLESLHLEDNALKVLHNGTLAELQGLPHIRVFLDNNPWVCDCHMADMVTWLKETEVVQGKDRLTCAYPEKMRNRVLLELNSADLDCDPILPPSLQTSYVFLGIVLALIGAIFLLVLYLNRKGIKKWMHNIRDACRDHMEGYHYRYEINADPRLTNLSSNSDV
In words: flow cytometry, CHO-K1/human 5T4 cells (FIG. 4). The protocol: (§1) Binding studies were performed by standard flow cytometry-based staining procedures two cell lines expressing 5T4:CHO-K1 cells (obtained from Alligator) transduced with human or cynomolgus macaque 5T4 and SKOV-3 human ovarian adenocarcinoma cells which express (human) 5T4. All labeling and washes were performed in U-bottom 96-well plates in saline buffer with 0.1% BSA and 2 mM EDTA. Cell were plated at approximately 100,000 cells per well and incubated with a range of 100 nM to 0.05 nM concentrations of test molecules in 50 μL volume/well, for 30 minutes on ice. Cells were washed three times then incubated for another 30 min on ice with fluorescently-labeled secondary polyclonal antibody, F(ab′)² goat anti-human IgG (Jackson ImmunoResearch Laboratories). The cells were then washed twice and the samples acquired in a BD LSRII or a Symphony A3 flow cytometer. The sample files were analyzed using FlowJo software; the mean fluorescence intensity (MFI-mean) or median fluorescence intensity (MFI-median) of the live population of cells in each well was calculated after gating on live cells (forward vs side scatter). Nonlinear regression analysis to determine EC₅₀ values was performed in GraphPad Prism 6® graphing and statistics software.
The differences in EC₅₀ values between constructs were more evident when binding assays were conducted on SKOV-3 cells. […]

Another assay has as its target T2, cynomolgus 5T4 on cells (cynomolgus macaque, UniProt Q4R8Y9 35-420).
T2 construct: whole, on cells; also called CHO-K1/cynomolgus 5T4
T2 sequence (looked up): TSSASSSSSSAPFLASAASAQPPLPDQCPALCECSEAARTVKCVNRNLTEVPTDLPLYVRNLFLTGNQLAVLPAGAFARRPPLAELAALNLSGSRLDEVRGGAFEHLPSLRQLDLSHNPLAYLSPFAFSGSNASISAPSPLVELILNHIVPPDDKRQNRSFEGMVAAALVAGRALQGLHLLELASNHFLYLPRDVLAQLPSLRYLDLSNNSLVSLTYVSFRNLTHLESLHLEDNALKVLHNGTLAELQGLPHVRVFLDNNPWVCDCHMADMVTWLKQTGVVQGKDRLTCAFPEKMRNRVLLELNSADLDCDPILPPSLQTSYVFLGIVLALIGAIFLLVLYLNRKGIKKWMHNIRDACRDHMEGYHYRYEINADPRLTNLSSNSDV
In words: flow cytometry, CHO-K1/cynomolgus 5T4 transfectants (FIG. 7). The protocol: as §1
For orientation: A flow cytometer gives signals particle by particle.

B1: ALG.APV-191 (bispecific antibody)
chain: EVQLLESGGGLVQPGGSLRLSCAASGFTFDYGSMYWVRQAPGKGLEWVSSISSGSGSTYYADSVKGRFTISHDNSKNTLYLQMNSLRAEDTAVYYCARSSYYGSYYSIDYWGQGTLVTVSSGGGGSGGGGSGGGGSGGGGSDIQMTQSPSSLSASVGDRVTITCRASQSISSYLNWYQQKPGKAPKLLIYAASSLHSGVPSRFSGSGSGTDFTLTISSLQPEDFATYYCQQYYDNLPTFGQGTKLEIKSSEPKSSDKTHTCPPCPAPEAAGAPSVFLFPPKPKDTLMISRTPEVTCVVVDVSHEDPEVKFNWYVDGVEVHNAKTKPREEQYNSTYRVVSVLTVLHQDWLNGKEYKCAVSNKALPAPIEKTISKAKGQPREPQVYTLPPSRDELTKNQVSLTCLVKGFYPSDIAVEWESNGQPENNYKTTPPVLDSDGSFFLYSKLTVDKSRWQQGNVFSCSVMHEALHNHYTQKSLSLSPGSGGGGSGGGGSGGGGSPSEVQLLESGGGLVQPGGSLRLSCAASGFTFSSYAMSWVRQAPGKCLEWVSAISGSGGSTYYADSVKGRFTISRDNSKNTLYLQMNSLRAEDTAVYYCARYYGGYYSAWMDYWGQGTLVTVSSGGGGSGGGGSGGGGSGGGGSDIQMTQSPSSLSASVGDRVTITCRASQSISSFLNWYQQKPGKAPKLLIYAASSLQSGVPSRFSGSGSGTDFTLTISSLQPEDFATYYCQQTYGYLHTFGCGTKLEIKS
notes: scFv-Fc-scFv (ADAPTIR) homodimer
For B1, the binding result with human 5T4 on cells and in the assay with cynomolgus 5T4 on cells was “binds” each time.
